From the supplement of paper PMC7125110
± gives the standard error. For some assays here: Variants at the floor of the assay were thinned out.

B1: glmS ribozyme (parent)
chain: AUAAAAGCGCCAGAACUACAGAAAUGUAGUUGACGAGGAGGAGGUUUAUCGAAUUUUCGGCGGAUGCCUCCAAA

Experiments:
Details in all cases: with glucosamine-6-phosphate
glucosamine-6-phosphate [1] = variants of: B1; experiment: kcat; higher = faster cleavage; RNA array
Procedure, shortened: (§1)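 kobs was derived by fitting per-tile medians to one- or two-exponential decays after normalising signals to baseline and to non-cleaving reference variants. Those signals came from barcoded ribozyme variants transcribed in situ by E. coli RNA polymerase on sequenced MiSeq chips, followed through a hybridised Cy3 probe at 37 °C and imaged over ~14 h. Glucosamine-6-phosphate (40 μM to 10 mM) in HEPES/KCl/Mg(OAc)2 buffer was flowed in. Weighted Michaelis–Menten fits across concentrations then gave kcat and KM.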

glucosamine-6-phosphate [2] = variants of: B1; experiment: self-cleavage kobs at 640 uM GlcN6P; higher = faster cleavage; RNA array
Procedure, shortened: as §1

glucosamine-6-phosphate [3] = variants of: B1; experiment: self-cleavage kobs at 2500 uM GlcN6P; higher = faster cleavage; RNA array
Procedure, shortened: as §1

glucosamine-6-phosphate [4] = variants of: B1; experiment: self-cleavage kobs at 40 uM GlcN6P; higher = faster cleavage; RNA array
Procedure, shortened: as §1

glucosamine-6-phosphate [5] = variants of: B1; experiment: self-cleavage kobs at 160 uM GlcN6P; higher = faster cleavage; RNA array
Procedure, shortened: as §1

glucosamine-6-phosphate [6] = variants of: B1; experiment: KM; higher = weaker cofactor use; RNA array
Procedure, shortened: as §1

glucosamine-6-phosphate [7] = variants of: B1; experiment: self-cleavage kobs at 10000 uM GlcN6P; higher = faster cleavage; RNA array
Procedure, shortened: as §1

| Variant | kcat (glucosamine-6-phosphate [1]) [s⁻¹] | self-cleavage kobs at 640 uM GlcN6P (glucosamine-6-phosphate [2]) [s⁻¹] | self-cleavage kobs at 2500 uM GlcN6P (glucosamine-6-phosphate [3]) [s⁻¹] | self-cleavage kobs at 40 uM GlcN6P (glucosamine-6-phosphate [4]) [s⁻¹] | self-cleavage kobs at 160 uM GlcN6P (glucosamine-6-phosphate [5]) [s⁻¹] | KM (glucosamine-6-phosphate [6]) [µM] | self-cleavage kobs at 10000 uM GlcN6P (glucosamine-6-phosphate [7]) [s⁻¹] |
| --- | --- | --- | --- | --- | --- | --- | --- |
| AUAAAAGCGCCAGAACUACAGAAAUGUAGUUGACGAGGAGGAGGUUUAUCGAAUUUGGGGCGGAUGCCUCCAAA | 3.94e-05 ± 1.6e-05 | 7.15e-05 ± 2.3e-05 | 5.55e-05 ± 2e-05 | – | – | – | – |
| AUAAAAGCGCCAGAACUACAGAAAUGUAUUUGACGUGGAGGAGGUUUAUCGAAUUUUCGGCGGAUGCCUCCAAA | < 1e-05 | – | < 1e-05 | – | – | – | – |
| AUAAAAGCGCCAGAACUACAGAAAUGUAGUUGACGAGGAGGAGGUUUAUCGAAUUUUUGGCGGAUGCCGCCAAA | 4.53e-05 ± 1.7e-05 | 6.7e-05 ± 1.6e-05 | 7.55e-05 ± 1.9e-05 | 2.63e-05 ± 1.1e-05 | 5.15e-05 ± 1.5e-05 | – | – |
| AUAAAAGCGCCAGAACUACAGAAAUGUAGUUGACGAGGAGGAGGUAUAUCGAAGUUUCGGCGGAUGCCUCCAAA | 0.00254 ± 0.00049 | 0.00113 ± 0.00014 | 0.00191 ± 0.00028 | 8.77e-05 ± 2e-05 | 0.000213 ± 5.2e-05 | 1180 ± 400 | 0.00205 ± 0.00028 |
| AUAAAAGCGCCAGAACUACAGAAAUGUAUUUGACGAGGAGGAGGUUUAUCGAAUUUUCUGCGGAUGCCUCCAAA | < 1e-05 | – | – | – | < 1e-05 | – | – |
| AUAAAAGCGCCAGAACUACAGAAAUGUAGUUGAGGAGGAGGAGGUUUAUCGAAUUUUCGGCGGAUGCCACCAAA | 3.79e-05 ± 1.1e-05 | 5.16e-05 ± 1.3e-05 | 3.05e-05 ± 1.3e-05 | – | – | – | – |
| AUAAAAGCGUCAGAACUACAGAAAUGUAGCUGACGAGGAGGAGGUUUAUCGAAUUUUCAACGGAUGCCUUCAAA | < 1e-05 | – | – | < 1e-05 | – | – | – |
| AUAAAAGCGCCGGAACUACAGAAAUGUAGUUGACGAGGAGGAGGUUUAUCGAGUUUUCGGCGGAUGCCUCCAAA | 0.0017 ± 0.00017 | 0.000231 ± 3.1e-05 | 0.000633 ± 7e-05 | – | 5.44e-05 ± 7.9e-06 | 4470 ± 620 | 0.00114 ± 0.00015 |
| AUAAAAGCGCCAGAACUACAGAAAUGUAGUUGACGAGGAGGAGGUGUAUCGAUUUUUCGGCGGAUGCCUCCAAA | 0.006 ± 0.0013 | 0.00141 ± 0.00032 | 0.00253 ± 0.00059 | 0.000116 ± 2.4e-05 | – | 2190 ± 770 | 0.00566 ± 0.00098 |
| AUAAAAGCGCUAGAACUACAGAAAUGUAGUUGACGAGAAGGAGGUUUAUCGAAUUUUCGGCGGAUGCCUCCAAA | < 1e-05 | – | – | < 1e-05 | < 1e-05 | – | < 1e-05 |
| AUAAAAGCGCCAGAACUACAGAAAUGUAGUUGACGAGGAGGAGGUUUAAGGAAUUUUCGGCGGAUGCCUCUAAA | 1.88e-05 ± 4.4e-06 | – | – | – | – | – | – |
